Where two headings read alike, the source gives them in different places.
How the values were obtained:
[1] = molecular target: T1, CD200R1a on PathHunter Jurkat CD200R1a signaling cells (Eurofins DiscoverX, 93-1136C19) (human, UniProt Q8TD46 25-348); assay: cell-based or functional assay
T1 sequence: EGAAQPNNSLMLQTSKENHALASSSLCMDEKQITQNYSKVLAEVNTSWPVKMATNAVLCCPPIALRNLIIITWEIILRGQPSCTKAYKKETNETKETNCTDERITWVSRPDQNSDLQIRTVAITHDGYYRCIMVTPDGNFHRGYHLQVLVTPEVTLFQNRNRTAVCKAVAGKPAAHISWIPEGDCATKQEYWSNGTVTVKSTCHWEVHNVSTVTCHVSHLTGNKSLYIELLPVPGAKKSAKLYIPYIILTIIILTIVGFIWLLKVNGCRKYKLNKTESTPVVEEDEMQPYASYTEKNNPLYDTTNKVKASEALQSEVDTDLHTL

[2] = molecular target: T2, Cynomolgus macaques CD200R1 isoform a on CHOK1 cells (CHOK1/cynoCD200R1a) (Cynomolgus macaques); assay: flow cytometry, CHOK1/cynoCD200R1a cells (APC-A Mean); table beside the curves
T2 chain: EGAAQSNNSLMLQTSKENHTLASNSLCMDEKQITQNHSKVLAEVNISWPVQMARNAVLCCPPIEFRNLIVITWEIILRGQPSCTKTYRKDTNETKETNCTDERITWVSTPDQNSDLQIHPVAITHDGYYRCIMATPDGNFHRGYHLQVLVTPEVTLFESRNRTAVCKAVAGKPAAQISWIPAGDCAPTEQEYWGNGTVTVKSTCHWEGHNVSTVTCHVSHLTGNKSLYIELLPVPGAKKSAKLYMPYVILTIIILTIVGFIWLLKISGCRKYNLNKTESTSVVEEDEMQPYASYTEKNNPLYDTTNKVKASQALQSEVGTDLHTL

[3] = molecular target: T3, human CD200R1 isoform a on CHOK1 cells (CHOK1/hCD200R1a) (human, UniProt Q8TD46 25-348); assay: flow cytometry blocking assay: biotin-labelled human CD200 binding to CHOK1/hCD200R1a cells; y axis Inhibition %
T3 construct: also called CHOK1/CD200R1a
T3 sequence: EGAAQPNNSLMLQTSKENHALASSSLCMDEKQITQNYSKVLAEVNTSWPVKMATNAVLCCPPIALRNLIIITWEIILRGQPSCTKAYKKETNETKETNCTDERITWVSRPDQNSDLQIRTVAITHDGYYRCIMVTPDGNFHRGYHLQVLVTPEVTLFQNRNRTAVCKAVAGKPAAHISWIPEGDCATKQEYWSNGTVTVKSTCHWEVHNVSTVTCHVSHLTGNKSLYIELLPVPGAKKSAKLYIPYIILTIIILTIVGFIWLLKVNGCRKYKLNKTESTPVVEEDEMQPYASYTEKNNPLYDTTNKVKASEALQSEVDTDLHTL
Procedure: (§1) In brief, CHOK1/hCD200R1a cells were digested and resuspended in 2% BSA in PBS. […] The cells were placed at 4° C. and incubated for 1 hour in the dark. […] 100 μL/well of pre-cooled PBS containing 2% BSA was added to rinse the cells twice, centrifugation was performed at 500 g, 4° C. for 5 minutes, and the supernatant was discarded. Fluorescent secondary antibody (PE Streptavidin, BD, Cat #: 554061, 1:200) was added at 100 μL/well, and incubation was performed at 4° C. for 30 minutes in the dark. The cells were washed twice with 200 μL/well of pre-cooled PBS, and were centrifuged at 500 g, 4° C. for 5 minutes, and the supernatant was discarded. Finally, 200 μL/well of pre-cooled PBS was used to resuspend the cells, and the fluorescence signal values were read using ACEA Novocyte 3000 flow cytometer. IC50 values were calculated.

[4] = molecular target: T3, human CD200R1 isoform a on CHOK1 cells …; assay: flow cytometry, CHOK1/hCD200R1a cells (FITC-Mean); table beside the curves, head without unit, x axis Log [Ab] (nM)
[5] = molecular target: T3, human CD200R1 isoform a on CHOK1 cells …; assay: flow cytometry blocking assay: antibody titrated against biotin-labelled human CD200 binding to CHOK1/hCD200R1a cells; head prints EC50 without unit, x axis Log [Ab] (nM), y axis Inhibition %
Procedure: as §1

[6] = molecular target: T3, human CD200R1 isoform a on CHOK1 cells …; assay: flow cytometry, CHOK1/hCD200R1a cells (FITC-Mean); table beside the curves
Procedure: (§2) This example is intended to investigate the in vitro binding activity of human anti-CD200R1 monoclonal antibodies to human/Cynomolgus macaques CD200R1a expressed on the surface of cells. The anti-CD200R1 antibodies were produced as described in Example 3.4 and the binding experiments at the cell level were performed using CHOK1/hCD200R1a and CHOK1-cynoCD200R1a.
(§3) Briefly, CHOK1/hCD200R1a cells and CHOK1-cynoCD200R1a cells were digested, and collected, and then were resuspended in PBS containing 2% BSA, respectively. The cell density was adjusted to 1×10⁶ cells/mL. The cells were seeded in a 96-well V-bottom plate (Corning, #3894) at 100 μL/well, followed by the addition of test antibodies and reference antibodies in a series diluted concentration, each at 100 μL/well. The cells were incubated away from light at 4° C. for 1 h. Thereafter, the cells in each well were rinsed twice with 100 μL of pre-cooled PBS containing 2% BSA, and centrifuged at 500 g at 4° C. for 5 min, and then the supernatant was discarded. 100 μL of fluorescent secondary antibody (Alexa Fluor 488-conjugated AffiniPure Goat Anti-Human IgG, Fcγ Fragment Specific, Jackson, #109-545-098, diluted in a 1:1000 ratio) was added in each well, and the plate was incubated away from light at 4° C. for 1 h. The cells in each well were rinsed twice with 100 μL of pre-cooled PBS containing 2% BSA, and centrifuged at 500 g at 4° C. for 5 min, and then the supernatant was discarded. Finally, the cells in each well were resuspended in 200 μL of pre-cooled PBS containing 2% BSA, and the fluorescence signal values were read using a BD CantoII flow cytometer.

[7] = molecular target: T4, Mouse CD200R1-His (mouse, UniProt Q9ES57 26-238, limits assumed); assay: BLI (Octet), antibody captured on anti-human Fc sensor
T4 sequence (looked up): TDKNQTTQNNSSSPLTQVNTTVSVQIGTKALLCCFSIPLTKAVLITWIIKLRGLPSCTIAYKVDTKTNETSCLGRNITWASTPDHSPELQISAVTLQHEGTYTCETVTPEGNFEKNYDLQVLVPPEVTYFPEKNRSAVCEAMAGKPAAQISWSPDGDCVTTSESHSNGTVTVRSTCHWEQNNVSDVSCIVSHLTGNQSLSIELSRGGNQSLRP
Procedure: To determine the binding affinities of the anti-CD200R1 antibodies to CD200R1a proteins of various species (mouse, human, Cynomolgus macaques), bio-layer interferometry (BLI) assays were carried out using an Octet® RED96e instrument. Antibodies were produced as described in Example 3.4 and diluted to 5 μg/mL using freshly prepared 1× kinetic buffer (10× kinetic buffer (Catalog #18-1105, ForteBio) was diluted with PBS(Catalog #E607016-0500, BBI Life Sciences)) and were captured on the surface of anti-human Fc (AHC) Octet biosensors (Catalog #18-5060, ForteBio) to reach capture levels between 0.9-1.2 nm. The biosensors having the captured anti-CD200R1 antibodies were then dipped in wells containing 2-fold serial dilutions of CD200R1a proteins to detect association signals, followed by dissociation steps in wells containing 1× kinetic buffer. The sensorgrams were recorded and the reference signals were subtracted before curve fitting using ForteBio Data Analysis 11.0 software. Association rates (kₒₙ) and dissociation rates (koff) were calculated using a simple one-to-one Langmuir binding model. The equilibrium dissociation constant (KD) was calculated as the ratio of koff/kₒₙ.

[8] = molecular target: T1, CD200R1a on PathHunter Jurkat CD200R1a …; assay: cell-based or functional assay; remark: listed apart in the source
[9] = molecular target: T3, human CD200R1 isoform a on CHOK1 cells …; assay: flow cytometry, CHOK1/hCD200R1a cells (FITC-Mean); table beside the curves; remark: listed apart in the source
Procedure: as §2, §3

[10] = molecular target: T3, human CD200R1 isoform a on CHOK1 cells …; assay: flow cytometry blocking assay: antibody titrated against biotin-labelled human CD200 binding to CHOK1/hCD200R1a cells; head prints EC50 without unit, x axis Log [Ab] (nM), y axis Inhibition %; remark: listed apart in the source
Procedure: as §1

[11] = molecular target: T3, human CD200R1 isoform a on CHOK1 cells …; assay: flow cytometry, CHOK1/hCD200R1a cells (FITC-Mean); table beside the curves, head without unit, x axis Log [Ab] (nM); remark: listed apart in the source
[12] = molecular target: T3, human CD200R1 isoform a on CHOK1 cells …; assay: flow cytometry blocking assay: biotin-labelled human CD200 binding to CHOK1/hCD200R1a cells; y axis Inhibition %; remark: listed apart in the source
Procedure: as §1

[13] = molecular target: T2, Cynomolgus macaques CD200R1 isoform a …; assay: flow cytometry, CHOK1/cynoCD200R1a cells (APC-A Mean); table beside the curves

B1: PR007444 (antibody, human IgG1, kappa)
heavy: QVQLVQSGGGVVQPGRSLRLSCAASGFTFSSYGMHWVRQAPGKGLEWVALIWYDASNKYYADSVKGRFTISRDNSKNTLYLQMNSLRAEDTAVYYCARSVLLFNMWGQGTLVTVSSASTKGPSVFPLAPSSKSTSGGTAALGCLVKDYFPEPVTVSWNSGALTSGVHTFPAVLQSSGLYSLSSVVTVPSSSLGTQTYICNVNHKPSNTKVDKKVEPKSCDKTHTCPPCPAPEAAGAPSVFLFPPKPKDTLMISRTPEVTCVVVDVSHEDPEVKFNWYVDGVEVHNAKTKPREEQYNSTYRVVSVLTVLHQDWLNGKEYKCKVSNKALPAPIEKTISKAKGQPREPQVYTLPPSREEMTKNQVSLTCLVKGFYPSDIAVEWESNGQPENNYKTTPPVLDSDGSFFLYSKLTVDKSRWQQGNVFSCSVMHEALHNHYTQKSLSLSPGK
light: DIQMTQSPPSLSASVGDRVTITCRASQSISSYLNWFQQKAGKAPKLLISATSNLQSGVPSRFSGSGSGTDFTLTISSLQPEDLATYYCQQTYSSPYTFGQGTKVEIKRTVAAPSVFIFPPSDEQLKSGTASVVCLLNNFYPREAKVQWKVDNALQSGNSQESVTEQDSKDSTYSLSSTLTLSKADYEKHKVYACEVTHQGLSSPVTKSFNRGEC
notes: PTM variant of PR006895 (human IgG1)
With B1 the “IC50 of the inhibition of CD200-induced PathHunter Jurkat CD200R1a luminescence (CHOK1/hCD200 cells as CD200 source)” value [1] was 0.755 nM, the EC50 [2] was 8.74 nM and the “MFI (MAX)” value [2] was 51700. For the same binder, the “Blocking(Max)” value [3] was 86.6%, the EC50 [4] was 0.15 nM and the EC50 [5] was 0.0926 nM. The “MFI(Max)” value [6] was 10800.

B2: PR005512 (antibody, human IgG1, kappa, L234A L235A, V domains shown)
VH: QVQLVESGGGVVQPGRSLRLSCVASGFTFSSYGMHWVRQAPGKGLEWVAIIWNDGSNRYYADSVKGRFTISRDNSKNTLYLQMNSLRAEDTAVYYCARDRIVGAGFDYWGQGTLVTVSS
VL: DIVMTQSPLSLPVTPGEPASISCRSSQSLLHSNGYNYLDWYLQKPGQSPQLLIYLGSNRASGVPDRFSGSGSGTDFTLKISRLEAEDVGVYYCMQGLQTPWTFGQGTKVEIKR
notes: also called PR60-012; PRE04512
For B2, the binding result [7] was “no binding” and the “IC50 of the inhibition of CD200-induced PathHunter Jurkat CD200R1a luminescence (CHOK1/hCD200 cells as CD200 source); head without unit, x axis Log [Ab] (nM)” value [8] was 2.63 nM.

B3: PR007974 (antibody, human IgG1, kappa, V domains shown)
VH: QVQLVESGGGVVQPGRSLRLSCAASGFTFSYYGFHWVRQAPGKGLEWLGLIWSDARHKDYADSVKGRFTISRDNSKNTLYLQMNSLRAEDTAVYYCARDRIVGEGFDYWGQGTLVTVSS
VL: DIVMTQSPLSLPVTPGEPASISCRSSQSLLHRSGYNYLDWYLQKPGQSPQLLIYLGSYRASGVPDRFSGSGSGTDFTLKISRVEAEDVGVYYCQQGIQTTYTFGQGTKLEIKR
notes: PTM variant of PR006839 (human IgG1)
With B3 the “MFI(Max)” value [9] was 18900, the EC50 [10] was 0.24 nM and the EC50 [11] was 0.277 nM. The “Blocking(Max)” value [12] was 98%, the EC50 [13] was 6.82 nM and the “MFI (MAX)” value [13] was 52200.
